In the supplement of paper PMC10567573:
± gives the standard deviation.

Assay: protein stability index of a GFP-peptide fusion (GPS, HEK-293T) (PSI 1-6); higher = more stable
Details: c terminus: a fixed tail appended
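Further: 24-mer peptide tiles fused after GFP, lentivirally expressed, FACS-sorted into six equal bins by GFP/DsRed ratio, decoded by Illumina sequencing, PSI is the read-weighted mean bin number.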

Sequence	protein stability index (treatment: DMSO)	protein stability index (treatment: MLN4924 1 uM, 8 h)
DKVGLITLSDWAAAVESVLHLGLP [PPEF2]	2.5 ± 0.25	2.31 ± 0.64
DLDRMGVMTLPSDLRKHRRKLLSP [PPFIA4]	3.72 ± 0.25	3.73 ± 0.12
DLKPTGEIPKQVKVKKLKNLKTLD [DENND6A]	4.24 ± 0.25	4.24 ± 0.31
DLQLTVGGAQASGTLIGVGQSVTA [MFSD9]	3.52 ± 0.34	3.6 ± 0.24
DLSKIIRTSSGTSREKTACAINKV [FAM98B]	3.06 ± 0.27	3.19 ± 0.6
DLVMALSAGGHGGLLNDTSAPHLE [KCNA4]	2.8 ± 0.35	2.58 ± 0.26
DMAGKIKLWDLRTTKCVRQYEGHV [DCAF4]	2.56 ± 0.18	2.68 ± 0.35
DNQWMTQINRLQKLIDRLEKKDLK [NECAB1]	2.13 ± 0.43	3.16 ± 0.33
DPAPLWGPPPAQGSPGDGGLQDQV [EMID1]	5.22 ± 0.27	5.2 ± 0.26
DPNFKMEHQNKRSPLHAAAEAGHV [EHMT1]	4.89 ± 0.22	5.04 ± 0.18
DQDLRTYLDKAPPPGLPAETIKDL [CDK4]	5.07 ± 0.28	4.94 ± 0.2
DRENGSDNLPSSAGSGDKPLSDPA [TPD52L2]	5.49 ± 0.26	5.45 ± 0.29
DRMARPSGRSGHNTRGTGSSSSGV [CSNK1G3]	4.87 ± 0.13	5.03 ± 0.098
DRVLQWERIDCQGIPPSSKDKLGV [KLHDC2]	4.14 ± 0.36	3.99 ± 0.07
DSEQNGQVTCSILAYLPFKLEKSI [PCDHGA10]	2.16 ± 0.24	2.27 ± 0.41
DVEFLPVYHPSPEESRDPTLYANN [LPCAT4]	4.88 ± 0.32	4.64 ± 0.054
DVKARLEGEIATYRHLLEGEDCKL [KRT36]	4.22 ± 0.21	4.29 ± 0.075
DVLAHQVPNAKKLRRKEQLWEKLA [NOP53]	2.84 ± 0.36	3.09 ± 0.29

Sequence	protein stability index (treatment: DMSO)	protein stability index (treatment: MLN4924 1 uM, 8 h)
DVNNLDPDLRSLFSRAGISEAQLT [WAS]	3.07 ± 0.41	3.34 ± 0.48
EAAEAETAKDNGEAEDQEEKEDAE [SRPK2]	5.55 ± 0.4	5.73 ± 0.29
EAAQVVPDGLGLDEAREEEGDREV [TRIB3]	5.63 ± 0.15	5.43 ± 0.45
EAEREFILNLKKKECKDRGFEYDG [NLN]	4.58 ± 0.41	4.91 ± 0.32
EAFWAEWKDLTLSTRPEEGCSLHE [TCAP]	3.98 ± 0.18	4 ± 0.2
EAGFHTVEAVAYAPKKELINIKGI [RAD51]	3.01 ± 0.054	3.19 ± 0.29
EAGIKVHDVRLNGSAAGHVLVKDN [TENT5C]	4.42 ± 0.17	4.61 ± 0.15
EALQNFFSLACSLMGPSRMSLFSL [M1AP]	2.89 ± 0.75	3.09 ± 0.74
EANEEFALRVQQLVAKELGQTGTR [AUP1]	3.87 ± 0.35	3.99 ± 0.45
EAPEAELSQAPAEGPDLVPAALGS [HES6]	5.5 ± 0.31	5.41 ± 0.35
EAQEEFLRVLGSMCQRLRSMQYNG [DFFB]	2.27 ± 0.21	2.27 ± 0.21
EASSSPPEGSQDRNTSWGVVQEPP [TLE6]	5.12 ± 0.28	5.2 ± 0.18
EDEDEDKEEEEEDCSEEYLERQLQ [TAF7L]	5.636 ± 0.049	5.76 ± 0.18
EDEEEEEGGEGEKEGEGEVGGEAV [TRIM55]	5.74 ± 0.24	5.7 ± 0.27
EDGHRTSTSAVPNLFVPLNTNPKE [ADD1]	4.89 ± 0.24	5.07 ± 0.11
EDHFPLLFSEASECMLLVFGIDVK [MAGEA10]	2.73 ± 0.84	2.7 ± 0.77
EEEDEILPRKDYESLDYDRCINDP [CLCN6]	5.52 ± 0.17	5.48 ± 0.29
EEEEAEDEEVVATAGDRLTEFRKG [IRX6]	5.48 ± 0.34	5.6 ± 0.28
